# Laboratory results reported in US20200115460A1 (TEIJIN PHARMA, published 2020).
# B1: IGF11-16 (antibody, mouse IgG1, kappa, V domains shown)
# VH: QIQLQQPGAELVKPGASVKLSCKAPGYTFTSYWMHWVKQRPGQGLEWIGETNPSNSVTNYNEKFKSKATLTVDKSSSTAYMQLSSLTSEDSAVYYCTIGRGRGFAYWGQGTLVTVSA
# VL: DIQMNQSPSSLSASLGDTITITCRASQNINFWLSWCQQKPGNIPKLLIYKASNLHTGVPSRFSGSGSGTDFTLTISSLQPEDIATYYCLQGQSYPYTFGGGTKLEIKR
# notes: no cleavage site is stated; also called IGF-I receptor agonist antibody; IGF11-16 antibody
# Legend:
# [1] = target: T1, wild-type rat IGF-I receptor (FLAG tag, Example 7) (rat, UniProt P24062 31-1370); assay: Cell ELISA on HEK 293T cells expressing the receptor
# T1 construct: Expressed on transfected HEK 293T cells
# T1 sequence (P24062 other isoform, or with tags, fused parts or gaps limits assumed): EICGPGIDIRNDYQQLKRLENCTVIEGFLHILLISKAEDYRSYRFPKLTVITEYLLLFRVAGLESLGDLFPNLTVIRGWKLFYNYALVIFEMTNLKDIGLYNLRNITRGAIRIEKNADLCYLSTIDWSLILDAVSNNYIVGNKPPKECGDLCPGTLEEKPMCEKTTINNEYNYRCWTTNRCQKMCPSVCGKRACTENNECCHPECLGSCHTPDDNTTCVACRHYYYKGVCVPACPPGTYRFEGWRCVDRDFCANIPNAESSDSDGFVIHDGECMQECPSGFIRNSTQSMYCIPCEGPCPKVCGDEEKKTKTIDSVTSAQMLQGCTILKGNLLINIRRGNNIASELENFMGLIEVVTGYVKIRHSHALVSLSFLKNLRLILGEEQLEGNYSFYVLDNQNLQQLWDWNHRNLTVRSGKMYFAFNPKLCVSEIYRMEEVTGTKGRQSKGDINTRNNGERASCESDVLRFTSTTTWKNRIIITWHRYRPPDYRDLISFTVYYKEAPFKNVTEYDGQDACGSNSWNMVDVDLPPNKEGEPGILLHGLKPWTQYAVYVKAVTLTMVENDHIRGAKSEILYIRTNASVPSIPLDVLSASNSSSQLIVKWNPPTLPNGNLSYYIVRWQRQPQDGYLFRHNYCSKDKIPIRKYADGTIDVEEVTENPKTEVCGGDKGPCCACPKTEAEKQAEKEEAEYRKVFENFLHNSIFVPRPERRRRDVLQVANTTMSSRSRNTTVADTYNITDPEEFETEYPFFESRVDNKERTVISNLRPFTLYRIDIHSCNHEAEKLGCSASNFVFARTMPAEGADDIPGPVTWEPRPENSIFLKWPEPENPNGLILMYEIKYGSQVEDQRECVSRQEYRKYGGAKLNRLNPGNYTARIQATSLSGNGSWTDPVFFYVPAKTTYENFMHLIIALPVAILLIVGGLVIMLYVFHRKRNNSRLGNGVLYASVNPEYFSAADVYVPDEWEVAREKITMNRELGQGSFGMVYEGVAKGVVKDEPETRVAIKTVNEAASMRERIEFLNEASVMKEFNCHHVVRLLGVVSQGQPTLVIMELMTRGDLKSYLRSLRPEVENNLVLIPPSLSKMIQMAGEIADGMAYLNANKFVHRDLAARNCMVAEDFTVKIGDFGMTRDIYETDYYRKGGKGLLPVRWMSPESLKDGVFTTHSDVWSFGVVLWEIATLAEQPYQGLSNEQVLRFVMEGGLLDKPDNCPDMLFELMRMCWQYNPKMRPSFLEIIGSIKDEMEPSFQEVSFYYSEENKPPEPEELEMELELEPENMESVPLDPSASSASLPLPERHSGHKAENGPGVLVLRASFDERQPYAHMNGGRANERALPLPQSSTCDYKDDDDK
# Method: (§1) HEK 293T cells were seeded in a 10-cm dish coated with poly-D-lysine at 9×10⁶ cells/well. On the next day, each plasmid DNA was transfected into the cells by lipofection. On the following day, the HEK 293T cells were detached with 0.25% trypsin/EDTA and were suspended in a broth. The HEK 293T cells were added to a 96-well plate (coated with poly-D-lysine) at a concentration of 0.8×10⁵ cells/well and were incubated at 37° C. under conditions of 5% CO₂ overnight. The medium was removed from the 96-well plate, and the cells were immobilized with a 10% buffered formalin (Mildform® 10 NM, Wako). The 10% buffered formalin was replaced with a blocking buffer (3% BSA/PBS/sodium azide), and the plate was used in ELISA.
# (§2) After washing with a washing liquid twice, anti-mouse-IgG antibody-HRP conjugate solutions (50 μL) adjusted to predetermined concentrations with 0.1% skimmed milk/3% BSA/PBS were added to respective wells and were subjected to reaction at room temperature for about 1 hour. After washing with a washing liquid twice, 100 μL of a substrate (TMB) was added to each well to start the reaction. After about 30 minutes, 100 μL of 0.5 M sulfuric acid was added to each well to stop the reaction, and the absorbances at 450 nm was measured. The value of the absorbance at 450 nm was evaluated as the avidity.
# human IGF-I receptor [2] = target: T2, human IGF-I receptor (human, UniProt P08069 31-1367); assay: Cell ELISA, fixed cells expressing the receptor
# T2 construct: Expressed on transfected P3U1 or HEK 293T cells, or native on human myoblasts; also called hIGFIR; IGF-I receptor of human (NP_000866)
# Method: In ELISA, antibody solutions (30 μL) adjusted to predetermined concentrations with 0.1% skimmed milk/3% BSA/PBS were added to respective wells and were subjected to reaction at room temperature for about 1 hour. After washing with a washing liquid (tris buffer containing Tween) twice, anti-mouse-IgG antibody-ALP conjugate solutions (30 μL) adjusted to predetermined concentrations with 0.1% skimmed milk/3% BSA/PBS were added to respective wells and were subjected to reaction at room temperature for about 1 hour. After washing with a washing liquid twice, 100 μL of a substrate (PNPP) was added to each well to start the reaction.
# rabbit IGF-I receptor = target: T3, rabbit IGF-I receptor (rabbit); assay: Cell ELISA, 10 nM antibody, fixed P3U1 cells expressing the receptor
# T3 construct: Expressed on transfected P3U1 cells; also called XP_017193273
# T3 sequence (chain, as listed by the source limits assumed): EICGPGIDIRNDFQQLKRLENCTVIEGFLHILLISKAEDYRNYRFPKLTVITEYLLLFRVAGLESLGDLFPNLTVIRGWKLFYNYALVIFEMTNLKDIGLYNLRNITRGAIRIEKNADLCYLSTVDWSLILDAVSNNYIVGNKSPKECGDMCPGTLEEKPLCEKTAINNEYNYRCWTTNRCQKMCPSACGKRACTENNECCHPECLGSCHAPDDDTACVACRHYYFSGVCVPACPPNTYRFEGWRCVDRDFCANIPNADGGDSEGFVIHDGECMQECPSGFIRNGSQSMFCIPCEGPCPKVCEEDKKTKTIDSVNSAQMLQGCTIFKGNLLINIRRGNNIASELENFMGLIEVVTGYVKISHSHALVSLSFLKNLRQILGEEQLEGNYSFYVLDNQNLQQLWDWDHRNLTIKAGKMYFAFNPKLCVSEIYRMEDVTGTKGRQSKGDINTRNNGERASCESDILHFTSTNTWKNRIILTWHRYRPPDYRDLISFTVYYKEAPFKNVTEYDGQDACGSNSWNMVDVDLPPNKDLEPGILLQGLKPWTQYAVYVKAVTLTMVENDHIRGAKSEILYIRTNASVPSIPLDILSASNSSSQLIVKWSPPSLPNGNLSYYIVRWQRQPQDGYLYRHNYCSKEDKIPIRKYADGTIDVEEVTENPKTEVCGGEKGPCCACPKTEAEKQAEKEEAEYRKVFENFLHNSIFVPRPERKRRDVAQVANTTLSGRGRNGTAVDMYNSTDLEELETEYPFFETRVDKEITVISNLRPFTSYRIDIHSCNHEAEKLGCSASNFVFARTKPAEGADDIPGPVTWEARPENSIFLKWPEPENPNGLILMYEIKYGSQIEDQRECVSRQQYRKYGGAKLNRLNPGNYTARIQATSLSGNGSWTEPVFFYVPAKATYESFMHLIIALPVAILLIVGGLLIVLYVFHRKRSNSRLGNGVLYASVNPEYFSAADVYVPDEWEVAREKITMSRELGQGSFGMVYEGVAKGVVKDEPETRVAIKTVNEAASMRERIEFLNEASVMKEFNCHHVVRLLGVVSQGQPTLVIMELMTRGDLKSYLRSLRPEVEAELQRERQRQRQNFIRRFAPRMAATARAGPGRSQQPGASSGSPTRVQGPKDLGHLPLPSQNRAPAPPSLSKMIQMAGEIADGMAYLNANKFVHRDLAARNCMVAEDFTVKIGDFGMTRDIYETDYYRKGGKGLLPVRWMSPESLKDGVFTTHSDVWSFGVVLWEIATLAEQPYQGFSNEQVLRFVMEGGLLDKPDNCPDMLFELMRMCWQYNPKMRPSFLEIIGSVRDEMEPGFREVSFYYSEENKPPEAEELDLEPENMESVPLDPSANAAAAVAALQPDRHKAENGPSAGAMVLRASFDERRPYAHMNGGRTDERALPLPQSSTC
# Method: (§3) After the lipofection, the P3U1 cells were cultured at least overnight and were added to a 96-well plate (coated with poly-D-lysine) at a concentration of 0.8×10⁵ cells/well and immobilized with 10% buffered formalin (Mildform® 10 NM, Wako), followed by blocking with phosphate buffer containing 3% BSA. The resulting plate was used for ELISA.
# (§4) After washing with a washing liquid twice, anti-mouse-IgG antibody-HRP conjugate solutions (30 μL) adjusted to predetermined concentrations with 0.1% skimmed milk/3% BSA/PBS were added to respective wells and were subjected to reaction at room temperature for about 1 hour. After washing with a washing liquid twice, 50 μL of a substrate (TMB) was added to each well to start the reaction. After about 20 minutes, 50 μL of 0.5 M sulfuric acid was added to each well. The absorbances at 450 nm and 550 nm were measured, and the difference between absorbance values at 450 nm and 550 nm was calculated.
# human IGF-I receptor [3] = target: T2, human IGF-I receptor; assay: as above
# Method: as §3, §4
# rat IGF-I receptor = target: T4, rat IGF-I receptor (rat, UniProt P24062 31-1370); assay: as above
# T4 construct: Expressed on transfected P3U1 cells; also called NP_494694
# T4 sequence (P24062 31-1370 limits assumed): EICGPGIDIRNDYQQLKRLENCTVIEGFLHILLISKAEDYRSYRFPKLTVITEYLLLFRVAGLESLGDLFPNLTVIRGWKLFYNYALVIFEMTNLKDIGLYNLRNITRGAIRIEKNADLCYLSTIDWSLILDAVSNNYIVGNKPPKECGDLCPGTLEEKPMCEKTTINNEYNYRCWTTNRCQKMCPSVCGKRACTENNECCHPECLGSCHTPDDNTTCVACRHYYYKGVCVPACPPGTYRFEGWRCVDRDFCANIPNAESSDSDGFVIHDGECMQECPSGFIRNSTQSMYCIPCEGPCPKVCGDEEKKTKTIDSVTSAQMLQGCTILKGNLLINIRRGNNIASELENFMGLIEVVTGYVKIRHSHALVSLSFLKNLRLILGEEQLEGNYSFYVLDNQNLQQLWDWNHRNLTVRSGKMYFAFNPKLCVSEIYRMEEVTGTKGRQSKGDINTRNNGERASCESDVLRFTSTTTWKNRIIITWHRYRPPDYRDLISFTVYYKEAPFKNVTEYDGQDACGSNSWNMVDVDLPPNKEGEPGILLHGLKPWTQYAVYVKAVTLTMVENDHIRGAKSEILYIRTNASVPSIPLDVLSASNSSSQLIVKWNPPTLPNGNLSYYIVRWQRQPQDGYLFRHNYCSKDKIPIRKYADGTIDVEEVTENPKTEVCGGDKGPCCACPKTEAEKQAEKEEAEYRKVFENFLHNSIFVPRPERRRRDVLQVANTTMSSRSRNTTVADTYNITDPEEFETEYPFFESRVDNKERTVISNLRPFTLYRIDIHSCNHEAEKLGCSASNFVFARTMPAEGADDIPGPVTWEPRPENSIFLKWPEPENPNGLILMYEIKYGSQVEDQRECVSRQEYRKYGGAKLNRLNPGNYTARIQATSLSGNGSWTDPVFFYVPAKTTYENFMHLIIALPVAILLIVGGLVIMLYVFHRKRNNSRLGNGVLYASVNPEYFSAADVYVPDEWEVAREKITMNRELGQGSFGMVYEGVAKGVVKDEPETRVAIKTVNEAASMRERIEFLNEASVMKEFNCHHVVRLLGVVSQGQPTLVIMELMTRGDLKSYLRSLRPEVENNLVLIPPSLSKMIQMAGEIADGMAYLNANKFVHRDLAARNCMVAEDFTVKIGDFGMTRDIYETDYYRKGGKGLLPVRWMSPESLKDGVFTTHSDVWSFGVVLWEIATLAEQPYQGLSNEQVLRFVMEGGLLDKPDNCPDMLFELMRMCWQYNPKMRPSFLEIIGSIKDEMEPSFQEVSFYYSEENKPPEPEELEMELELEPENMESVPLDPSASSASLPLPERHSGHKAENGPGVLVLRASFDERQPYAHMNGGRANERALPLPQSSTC
# Method: as §3, §4
# [4] = target: T5, guinea pig IGF-I receptor (guinea pig, UniProt P08069 31-1367 (human entry)); assay: as above
# T5 construct: Expressed on transfected P3U1 cells, or native on guinea pig myoblasts; also called XP_003475316
# Method: as §3, §4
# [5] = target: T6, cynomolgus monkey IGF-I receptor (cynomolgus monkey, UniProt P08069 31-1367 (human entry)); assay: as above
# T6 construct: Expressed on transfected P3U1 cells; also called NP_001248281
# Method: as §3, §4
# [6] = target: T7, Substitution 3 of the CR domain (human IGF-I receptor G315S/S316T, FLAG tag) (human, UniProt P08069 31-1367); assay: Cell ELISA on HEK 293T cells expressing the substitution
# T7 construct: Expressed on transfected HEK 293T cells
# Method: as §1, §2
# [7] = target: T8, Substitution 1 of the CR domain (human IGF-I receptor D245N/A247T, FLAG tag) (human, UniProt P08069 31-1367); assay: Cell ELISA, 1 nM antibody, fixed HEK 293T cells
# T8 construct: Expressed on transfected HEK 293T cells
# Method: as §1, with “On” for “HEK 293T cells were seeded in a 10-cm dish coated with poly-D-lysine at 9×10⁶ cells/well. On”
# as §2
# [8] = target: T1, wild-type rat IGF-I receptor (FLAG tag, …); assay: Cell ELISA, 1 nM antibody, fixed HEK 293T cells
# Method: as §1, with “On” for “HEK 293T cells were seeded in a 10-cm dish coated with poly-D-lysine at 9×10⁶ cells/well. On”
# as §2
# [9] = target: T7, Substitution 3 of the CR domain (human …); assay: Cell ELISA, 1 nM antibody, fixed HEK 293T cells
# Method: as §1, with “On” for “HEK 293T cells were seeded in a 10-cm dish coated with poly-D-lysine at 9×10⁶ cells/well. On”
# as §2
# [10] = target: T9, Substitution 2 of the CR domain (human IGF-I receptor E294D, FLAG tag) (human, UniProt P08069 31-1367); assay: Cell ELISA, 1 nM antibody, fixed HEK 293T cells
# T9 construct: Expressed on transfected HEK 293T cells
# Method: as §1, with “On” for “HEK 293T cells were seeded in a 10-cm dish coated with poly-D-lysine at 9×10⁶ cells/well. On”
# as §2
# [11] = target: T10, wild-type human IGF-I receptor (FLAG tag, Example 7) (human, UniProt P08069 31-1367); assay: Cell ELISA, 1 nM antibody, fixed HEK 293T cells
# T10 construct: Expressed on transfected HEK 293T cells
# Method: as §1, with “On” for “HEK 293T cells were seeded in a 10-cm dish coated with poly-D-lysine at 9×10⁶ cells/well. On”
# as §2
binder,measurement,setting,value
B1,binding result,[1],no binding (tested: 1 nM)
same,"avidity (absorbance difference 405-550 nm, Mock cells = 1) at 0.5 nM",human IGF-I receptor [2],2.9 fold of Mock cells
same,"avidity (absorbance difference 405-550 nm, Mock cells = 1) at 5 nM",human IGF-I receptor [2],3.7 fold of Mock cells
same,"Avidity (absorbance difference 450-550 nm, Mock cells = 1)",rabbit IGF-I receptor,5.4 fold of Mock cells
same,"Avidity (absorbance difference 450-550 nm, Mock cells = 1)",human IGF-I receptor [3],5.4 fold of Mock cells
same,"Avidity (absorbance difference 450-550 nm, Mock cells = 1)",rat IGF-I receptor,1 fold of Mock cells
same,"Avidity (absorbance difference 450-550 nm, Mock cells = 1)",[4],5.3 fold of Mock cells
same,"Avidity (absorbance difference 450-550 nm, Mock cells = 1)",[5],5.4 fold of Mock cells
same,binding result,[6],no binding (tested: 1 nM)
same,absorbance at 450 nm,[7],≥ 2 absorbance at 450 nm
same,absorbance at 450 nm,[8],~1 absorbance at 450 nm
same,absorbance at 450 nm,[9],~1 absorbance at 450 nm
same,absorbance at 450 nm,[10],≥ 2 absorbance at 450 nm
same,absorbance at 450 nm,[11],≥ 2 absorbance at 450 nm
